Assay results as given in patent US20090203610A1, “METHODS OF TREATING OBESITY OR DIABETES USING NT-4/5” (RINAT NEUROSCIENCE CORPORATION, priority 2004, published 2009).

B1: NT-4/5: mature human neurotrophin-4/5 (SEQ ID NO:1), obtained from Genentech or produced in E. coli (protein, listed as Homo sapiens)
chain: GVSETAPASRRGELAVCDAVSGWVTDRRTAVDLRGREVEVLGEVPAAGGSPLRQYFFETRCKADNAEEGGPGAGGGGCRGVDRRHWVSECKAKQSYVRALTADAQGRVGWRWIRIDTACVCTLLSRTGRA

Legend:
db/db mice [1] = experiment: Heart and gastrocnemius muscle weight in db/db mice (Example 1); settings: day 28; NT-4/5 20 mg/kg s.c., Rosiglitazone 3 mg/kg p.o.
Method: Test animals: 24 female 10-12 weeks old db/db mice (C57BL/Ks J Rj-db/db, Janvier, France), weighing in the target range of 40-50 g, were used in this study. These mice were housed in a temperature (19.5-24.5° C.) and relative humidity (45-65%) controlled room with a 12-hour light/dark cycle, with ad libitum access to filtered tap-water and irradiated pelleted laboratory chow (SAFE, France) throughout the study. Upon receipt at animal facilities, they were housed 4 per cage covered with filtered caps and at least a 5-day acclimation period was observed.
The mice were divided into three groups of 8 mice each (groups 1-3). Each group was treated with vehicle (PBS) subcutaneously (s.c.), 3 mg/kg Rosiglitazone orally (p.o.), or 20 mg/kg NT-4/5 subcutaneously (s.c.). From day 1 to day 5 (T1-T5) and then from day 8 to day 12 (T8-T12), the mice in groups 2 and 3 were dosed once daily for 5 consecutive days, with a volume of 10 ml/kg.
Heart weight and gastrocnemius weight were measured on day 28 for vehicle, Rosiglitazone, and NT-4/5 treated mice.

db/db mice [2] = experiment: Co-administration of Mab 1241 with NT4/5 in db/db mice (Example 15); assay type: in vivo; settings: NT4/5 2 mg/kg s.c. daily day 1-5; Mab 1241 5 mg/kg i.p. single on day 1
Source text: Test animals: 32 Leptin receptor mutant db/db mice (BSK.Cg-m+/+Leprdb) obtained from Jackson Laboratory were used for the study. The mice were divided into four groups of 8 animals each (groups 1-4), with homogeneous initial body weight and glycemia values based on a randomization table. The mice were housed one per cage.
Anti-NT4/5 and NT4/5: Both anti-NT4/5 monoclonal antibody Mab 1241 and human NT4/5 were obtained from Genentech. […] (data not shown).
Administration of Mab 1241 and NT4/5: On day one, mice in groups 1-4 were treated with vehicle (PBS) subcutanouesly (s.c.), 5 mg/kg Mab 1241 intraperitioneally (i.p.), 5 mg/kg Mab 1241 intraperitioneally (i.p.) plus 2 mg/kg NT4/5 subcutanouesly (s.c.), and 2 mg/kg NT4/5 subcutanouesly (s.c.), respectively. On day 2 through day 5, group 1 was treated with a daily dose of vehicle (PBS) subcutanouesly (s.c.). Groups 3 and 4 were treated with a daily dose of 2 mg/kg NT4/5 subcutanouesly (s.c.).
Baseline non-fasted blood glucose level was measured by One-Touch Ultra glucose meter from the tail bleed.

DIO mice = experiment: Weekly intravenous pegylated G1S NT-4/5 versus WT NT-4/5 on body weight and food intake in DIO mice (Example 8); assay type: in vivo
Source text: Test animals: Mice with diet induced obesity (DIO) were used in this study. 29 male C57BL/6J mice were weaned at 4 weeks of age. Immediately after weaning, they were put on 58% high fat diet (D12331i, Research Diet) through out the study. The DIO mice at 13 weeks of age weighing in the range of 28-40 g were used in this study.
Administration of NT-4/5 and pegylated NT-4/5: NT-4/5 was obtained from Genentech Inc. or produced as described in U.S. Pat. No. 6,184,360. Pegylated NT-4/5 was produced as follows: A mutation was introduced by changing the glycine 1 position of mature human NT-4/5 sequence to serine, resulting in a mutant form of NT-4/5 (NT4-G1S). NT4-G1S protein was expressed in E. coli, solubilized, extracted, purified and refolded as described above. Refolded NT4-G1S was dialyzed into 50 mM sodium phosphate buffer at pH 6.8 and treated with 1.5 molar excess sodium meta-periodate for 10 minutes to oxidize the N-terminal serine (or threonine) residue to an aldehyde. Remaining periodate was removed by dialysis against 30 mM sodium acetate at pH 4.5. The exact concentration of NT4-G1S was determined and a 2 to 4 fold molar excess of 20K-m-PEG-HZ (methoxy polyethylene glycol hydrazide) was added. The reaction was incubated at 37° C. for several days with gentle agitation. Unconjugated PEG, pegylated NT4-G1S and non-pegylated NT4-G1S were separated via ion exchange or size exclusion chromatography.
The mice were divided into 3 groups of equivalent body weight and baseline blood glucose distribution (7-8 mice per group). Each group received four weekly intravenous doses (on day 1, 8, 15 and 22) of either vehicle, 2 mg/kg of NT-4/5 or 2 mg/kg of pegylated G1S NT-4/5 respectively. Body weight and food intake were monitored 5 days per week through out the entire study.

db/db mice [3] = experiment: Long term glucose control in db/db mice (Example 14); assay type: in vivo
Method: Db/db mice maintained as described in Example 1 were divided into five groups (groups 1-5). Group 1 were administered with vehicle (PBS). Group 2, group 3, group 4, group 5 were each administered with NT-4/5 at the doses of 2 mg/kg, 5 mg/kg, 10 mg/kg, and 20 mg/kg, respectively. Both the vehicle and NT-4/5 were administered to each group of the mice subcutaneously once daily from day 1 to day 26. One day before beginning the treatment (day 0), blood samples were collected from the mice as described previously for the determination of baseline levels of serum biomarkers (glucose and insulin). On day 45, HbA1c level was measured. Glucose tolerance test was performed on day 54 (28 days after the last dose of NT-4/5 treatment). Intraperitoneal (IP) glucose tolerance test was conducted by fasting the mice overnight (16 hours) before giving them an IP injection of a load of 2 grams of glucose/kg of body weight. Serum glucose and insulin were also measured.

[4] = tested on: NONcNZO-10 polygenic obese mice; experiment: Pegylated NT-4/5 cysteine mutant on body weight, food intake, glucose, triglyceride in NONcNZO-10 mice (Example 6); assay type: in vivo
Method: Test animals: 30 male NONcNZO-10 polygenic obese mice at 10 weeks of age weighing in the range of 27-32 g were used in this study.
Administration of NT-4/5 and pegylated NT-4/5: The mice were divided into 4 groups of equivalent body weight distribution (7-8 mice per group). Each group received on the first day (day 1) of the study one and the only dose of either vehicle alone, 1 mg/kg of NT-4/5 or 1 mg/kg of PEG-NT4-S50C, respectively. A final group received a daily subcutaneous dose of 1 mg/kg of NT-4/5 from day 1 to day 5, then from day 7 to day 9. On day 9 after the treatment started, blood samples were collected to determine serum glucose and triglyceride levels. Body weight and food intake were monitored 5 days a week through out the entire study.

[5] = single subcutaneous injection of 1 mg/kg, day 9

Molecule | Gastrocnemius weight (db/db mice [1]) [g] | Heart weight (db/db mice [1]) [g] | body weight (db/db mice [2]) | food intake (db/db mice [2]) | non-fasted glucose level (db/db mice [2]) | body weight, pairwise difference with the vehicle control group (DIO mice; 2 mg/kg i.v. on day 1, 8, 15, 22, Bonferroni posttests) | body weight with long term weekly dosing (DIO mice; 2 mg/kg i.v. weekly) | serum insulin levels (db/db mice [3]; 10 mg/kg/d, day 6, P<0.05) | serum insulin levels (db/db mice [3]; 20 mg/kg/d, day 6 and day 14, P<0.05) | non-fasting serum glucose level reduction (db/db mice [3]; all treatment groups, remained low until day 29) | HbA1c levels versus vehicle (db/db mice [3]; day 45 (15 days post-dose), 2, 5, 10 and 20 mg/kg s.c. daily day 1 to 26) | glucose tolerance (db/db mice [3]; day 54, 28 days after the last dose) | triglyderide level reduction ([4]; daily dose of 1 mg/kg, on average, P<0.01) | blood glucose level reduction ([4]; daily dose of 1 mg/kg, on average, P<0.05) | Daily food intake ([4]; daily injection of 1 mg/kg) | body weight ([4]; daily injection of 1 mg/kg) | blood glucose level [4, 5] | triglyceride level [4, 5]
CN(CCOc1ccc(CC2SC(=O)NC2=O)cc1)c1ccccn1 (stereo not drawn) [Rosiglitazone, reference compound] | 0.074 | 0.114 |  |  |  |  |  |  |  |  |  |  |  |  |  |  |  | 
B1 |  |  | small, but statistically insignificant reduction in body weight | significantly reduced food intake on day 8 and day 10 | reduced non-fasted glucose level only on day 9, but not on day 4 | significant pairwise differences | more effective in maintaining lower body weight | significant reduction | significant reduction | more than 50% | significantly lower than the vehicle group | significantly improved glucose tolerance | about 50% | about 50% | without affecting daily food intake | significantly reduced body weight | did not significantly reduce | did not significantly reduce
